Assay results from patent US12551583B2, “Radiolabeled ligands for targeted PET/SPECT imaging and methods of their use” (MEMORIAL SLOAN KETTERING CANCER CENTER, priority 2016, dated 2026).

Tests used:
[1] = in vivo; conditions: female, BALB/c, mouse, iv, total radioactivity; for tissue uptake at 24 h: 4T1 tumoral uptake; for tissue uptake at 4 h: biodistribution, Tumor (4T1 tumoral uptake)
Experimental: (§1) 4T1 orthotopic BALB/c mouse model. The cells were removed from the flasks, concentrated, and resuspended in minimal media for cell counting. The cells were then diluted to contain approximately 1 million cells in 30 μL of media (for orthotopic allografts). Following an MSKCC Institutional Animal Care and Use Committee approved protocol, 8-10 week old BALB/c mice (Charles River Laboratories, Wilmington, MA) were surgically implanted with one million 4T1 cancer cells into the first or the last mammary fat pad of the right side of the animal using aseptic surgical techniques and sterile staple closures while the mice were under anesthetic. Additionally, mice were given injections of meloxicam (24 h pain killer) in the scruff and bupivacaine intradermally prior to surgical incisions. One day post surgery, the mice were again given meloxicam and checked to ensure that the closure was healing. Two and three days post surgery, the mice were checked to ensure that the animals were healthy and recovering well from the surgery. Five to seven days post surgery, the staples were removed. Five to nine days post surgery, the mice were injected with 50-75 μCi (0.9-0.4 nmol) of the respective radiopharmaceutical for in vivo biodistribution or 500-600 μCi (9-11 nmol) for in vivo imaging. The mice receiving ^64Cu-NOTA-pHLIP were sacrificed at 1, 2, 4, 12, 24, 36, and 48 h; the mice receiving [^18F]—AlF-NOTA-pHLIP were sacrificed at 0.5, 1, 2, 4, 6 and 8 h. The 4T1 tumors in this study were purposely used 5-9 days after inoculation to ensure lower tumoral pH. Animal models. Animal studies were conducted according to MSKCC IACUC-approved animal protocol. 4T1 (orthotopic breast cancer allografts of 1×10^6 cells surgically implanted in the mammary fat pad) and B16-F10 (orthotopic melanoma allografts of 1×10^5 cells injected intradermally on the shoulder) tumors were orthotopically inoculated in media in female BALB/c and C57Bl/6 mice (Charles River Laboratories (CRL)), respectively. Additionally, PC3 (3×10^6 cells) or LNCaP (3-6×10^6 cells) tumors were subcutaneously xenografted on the shoulder of athymic nude male mice (CRL). Mice were used once tumor volumes were approximately 90-300 mm^3. In vivo animal PET imaging and biodistribution. Mice were injected with radiolabeled NOTA-pHLIP derivatives i.v. (500-700 μCi/mouse for PET or SPECT imaging studies and 25-100 μCi/mouse for biodistribution studies). All injections were less than 200 μL with <10% EtOH in sterile PBS. PET images were obtained with the mice under anesthesia in an Inveon PET-CT or microPET Focus 120 (Siemens) at 0.5-48 h p.i. All images were analyzed using ASIPro VM (Concorde Microsystems). SPECT images were obtained with the mice under anesthesia in a NanoSPECT/CT Plus at 4-24 h p.i. All SPECT images were reconstructed using HiSPECT and analyzed using InVivoScope. Dissections for ex vivo biodistribution were performed on mice after CO2 asphyxiation or cervical dislocation while anesthetized at reported time points. Weight of the syringe prior to injection and after injection was used to determine the mass of injectate. Activity of the syringe prior to injection and after injection was used to determine the percent of injectate administered. The mass injected was corrected by the percent of radioactivity injected. Four to five aliquots (10 μL) were weighed and counted as internal standards for each study. All of the collected organs were counted using an automatic gamma counter (Wizard 3″, PerkinElmer, Waltham, MA). The total injected dose was found as the mass injected dose×fraction radioactivity injected×internal standard average counts/g. The percent injected dose (% ID) was determined as the counts for the tissue×100/total injected dose. The % ID/g was calculated as the % ID/tissue weight. The average and standard deviation of the % ID and % ID/g was determined using normal methods (n−1) for each set of mice.

[2] = test system: 4T1 orthotopic tumor-bearing BALB/c mice; assay: in vivo; conditions: female, BALB/c, mouse, iv; for biodistribution, Tumor (4T1 tumoral uptake): 4 h
Experimental: as §1

| SMILES | tissue uptake at 24 h ([1]; 50 uCi) [%ID/g] | tissue uptake at 4 h [1] [%ID/g] | 4T1 tumoral uptake ([2]; 50 uCi, 24 h) [% ID/g] | biodistribution, Tumor (4T1 tumoral uptake) [2] [% ID/g] | tissue uptake at 24 h ([1]; 500 uCi) [%ID/g] |
| --- | --- | --- | --- | --- | --- |
| CC(C)C[C@@H](NC(=O)[C@@H](CC(C)C)NC(=O)[C@@H](CC(=O)O)NC(=O)[C@@H](CC(C)C)NC(=O)[C@@H](CC(C)C)NC(=O)[C@@H](CC(C)C)NC(=O)[C@H](NC(=O)[C@@H](CC(=O)O)NC(=O)[C@H](NC(=O)[C@H]1CCCN1C(=O)[C@@H](Cc1ccccc1)NC(=O)[C@@H](CC(C)C)NC(=O)[C@@H](CC(C)C)NC(=O)[C@@H](CC(=O)O)NC(=O)[C@@H](CC(C)C)NC(=O)[C@@H](Cc1ccc(O)cc1)NC(=O)[C@@H](C)NC(=O)[C@@H](CCCNC(=N)N)NC(=O)[C@@H](Cc1c[nH]c2ccccc12)NC(=O)[C@H]1CCCN1C(=O)[C@@H](CC(N)=O)NC(=O)[C@@H](CCC(N)=O)NC(=O)[C@@H](CC(=O)O)NC(=O)[C@@H](CC(=O)O)NC(=O)[C@@H](CS)NC(=O)[C@@H](C)NC(=S)Nc1ccc(CC2CN(CC(=O)O)CCN(CC(=O)O)CCN2CC(=O)O)cc1)[C@H](C)O)[C@H](C)O)C(=O)N[C@H](Cc1c[nH]c2ccccc12)C(=O)O (single isomer, unassigned) [^67Ga-NOTA-Var3, metal not drawn] | 2.93 ± 0.11 | 2.05 ± 0.17 | – | – | – |
| CC(C)C[C@@H](NC(=O)[C@@H](Cc1ccc(O)cc1)NC(=O)[C@@H](C)NC(=O)[C@@H](CCCNC(=N)N)NC(=O)[C@@H](Cc1c[nH]c2ccccc12)NC(=O)[C@H]1CCCN1C(=O)[C@@H](CC(N)=O)NC(=O)[C@@H](CCC(N)=O)NC(=O)[C@@H](CC(=O)O)NC(=O)[C@@H](CC(=O)O)NC(=O)[C@@H](C)N)C(=O)N[C@H](CC(=O)O)C(=O)N[C@H](CC(C)C)C(=O)N[C@H](CC(C)C)C(=O)N[C@H](Cc1ccccc1)C(=O)N1CCC[C@@H]1C(=O)N[C@@H](C(=O)N[C@H](CC(=O)O)C(=O)N[C@@H](C(=O)N[C@H](CC(C)C)C(=O)N[C@H](CC(C)C)C(=O)N[C@H](CC(C)C)C(=O)N[C@H](CC(=O)O)C(=O)N[C@H](CC(C)C)C(=O)N[C@H](CC(C)C)C(=O)N[C@H](Cc1c[nH]c2ccccc12)C(=O)N[C@H](CSC1CC(=O)N(CCNC(=O)CN2CCN(CC(=O)O)CCN(CC(=O)O)CC2)C1=O)C(=O)NCC(=O)O)[C@H](C)O)[C@H](C)O (some centres unmarked) [^67Ga-NO2A-C^27Var3, metal not drawn] | 23 ± 5 | 20.5 ± 1 | – | – | – |
| CC(C)C[C@@H](NC(=O)[C@@H](CC(C)C)NC(=O)[C@@H](CC(=O)O)NC(=O)[C@@H](CC(C)C)NC(=O)[C@@H](CC(C)C)NC(=O)[C@@H](CC(C)C)NC(=O)[C@H](NC(=O)[C@@H](CC(=O)O)NC(=O)[C@H](NC(=O)[C@H]1CCCN1C(=O)[C@@H](Cc1ccccc1)NC(=O)[C@@H](CC(C)C)NC(=O)[C@@H](CC(C)C)NC(=O)[C@@H](CC(=O)O)NC(=O)[C@@H](CC(C)C)NC(=O)[C@@H](Cc1ccc(O)cc1)NC(=O)[C@@H](C)NC(=O)[C@@H](CCCNC(=N)N)NC(=O)[C@@H](Cc1c[nH]c2ccccc12)NC(=O)[C@H]1CCCN1C(=O)[C@@H](CC(N)=O)NC(=O)[C@@H](CCC(N)=O)NC(=O)[C@@H](CC(=O)O)NC(=O)[C@@H](CC(=O)O)NC(=O)[C@@H](CSC1CC(=O)N(CCNC(=O)CN2CCN(CC(=O)O)CCN(CC(=O)O)CC2)C1=O)NC(=O)[C@@H](C)N)[C@H](C)O)[C@H](C)O)C(=O)N[C@H](Cc1c[nH]c2ccccc12)C(=O)O (single isomer, unassigned) [^67Ga-NO2A-cysVar3, metal not drawn] | – | – | 26±4 | 12±3 | 34 ± 3 |
| CC(C)C[C@@H](NC(=O)[C@@H](CC(C)C)NC(=O)[C@@H](CC(=O)O)NC(=O)[C@@H](CC(C)C)NC(=O)[C@@H](CC(C)C)NC(=O)[C@@H](CC(C)C)NC(=O)[C@H](NC(=O)[C@@H](CC(=O)O)NC(=O)[C@H](NC(=O)[C@H]1CCCN1C(=O)[C@@H](Cc1ccccc1)NC(=O)[C@@H](CC(C)C)NC(=O)[C@@H](CC(C)C)NC(=O)[C@@H](CC(=O)O)NC(=O)[C@@H](CC(C)C)NC(=O)[C@@H](Cc1ccc(O)cc1)NC(=O)[C@@H](C)NC(=O)[C@@H](CCCNC(=N)N)NC(=O)[C@@H](Cc1c[nH]c2ccccc12)NC(=O)[C@H]1CCCN1C(=O)[C@@H](CC(N)=O)NC(=O)[C@@H](CCC(N)=O)NC(=O)[C@@H](CC(=O)O)NC(=O)[C@@H](CC(=O)O)NC(=O)[C@@H](CSC1CC(=O)N(CCNC(=O)CN2CCN(CC(=O)O)CCN(CC(=O)O)CC2)C1=O)NC(=O)[C@@H](C)N)[C@H](C)O)[C@H](C)O)C(=O)N[C@H](Cc1c[nH]c2ccccc12)C(=O)O (single isomer, unassigned) [^68Ga-NO2A-cysVar3, metal not drawn] | – | – | – | 6±2 | – |
